Experimental data as given in US20230192890A1.
Numbering of substitutions follows the chain as printed.

T1: Ala mutant SEQ ID NO: 27 (human)
T1 sequence (peptide): AENMDDQWMQDEMEIGY

T2: Ala mutant SEQ ID NO: 28 (human)
T2 sequence (peptide): EANMDDQWMQDEMEIGY

T3: Ala mutant SEQ ID NO: 29 (human)
T3 sequence (peptide): EEAMDDQWMQDEMEIGY

T4: Ala mutant SEQ ID NO: 30 (human)
T4 sequence (peptide): EENADDQWMQDEMEIGY

T5: Ala mutant SEQ ID NO: 31 (human)
T5 sequence (peptide): EENMADQWMQDEMEIGY

T6: Ala mutant SEQ ID NO: 33 (human)
T6 sequence (peptide): EENMDDAWMQDEMEIGY

T7: Ala mutant SEQ ID NO: 36 (human)
T7 sequence (peptide): EENMDDQWMADEMEIGY

T8: Ala mutant SEQ ID NO: 37 (human)
T8 sequence (peptide): EENMDDQWMQAEMEIGY

T9: Ala mutant SEQ ID NO: 38 (human)
T9 sequence (peptide): EENMDDQWMQDAMEIGY

T10: Ala mutant SEQ ID NO: 39 (human)
T10 sequence (peptide): EENMDDQWMQDEAEIGY

T11: Ala mutant SEQ ID NO: 40 (human)
T11 sequence (peptide): EENMDDQWMQDEMAIGY

T12: Ala mutant SEQ ID NO: 41 (human)
T12 sequence (peptide): EENMDDQWMQDEMEAGY

T13: Ala mutant SEQ ID NO: 42 (human)
T13 sequence (peptide): EENMDDQWMQDEMEIAY

T14: Ala mutant SEQ ID NO: 43 (human)
T14 sequence (peptide): EENMDDQWMQDEMEIGA

T15: Ala mutant having 3-amino acid substitution, SEQ ID NO: 44 (human)
T15 sequence (peptide): AAAMDDQWMQDEMEIGY

T16: Ala mutant having 3-amino acid substitution, SEQ ID NO: 47 (human)
T16 sequence (peptide): EENMDDQWMAAAMEIGY

T17: Ala mutant having 3-amino acid substitution, SEQ ID NO: 48 (human)
T17 sequence (peptide): EENMDDQWMQDEAAAGY

T18: Ala mutant having 3-amino acid substitution, SEQ ID NO: 49 (human)
T18 sequence (peptide): EENMDDQWMQDEMEIAA

T19: TA0096 (peptide antigen corresponding to positions 340 to 356 of PAD4) (human)
T19 sequence (peptide): EENMDDQWMQDEMEIGY

T20: Ala mutant SEQ ID NO: 32 (human)
T20 sequence (peptide): EENMDAQWMQDEMEIGY

B1: H7 (antibody, IgG1, V domains shown)
VH: AVTLDESGGGLQTPGGALSLVCKASGFTFSTYAMGWMRQAPGKGLEYVAAIRNDGSWTGYGAAVKGRATILRDNGQSTVRLQLSNLRAEDTGTYYCAKYTGSSGGSIGAWGHGTEVIVS
VL: ASTQPSSVSANPGGTVEITCSGGSGRYYYGWYQQKSPGSAPVTVIYSSTHRPSNIPSRFSGSKSGSTATLTITGVQAEDEAVYFCGTADSSSYVFGAGTTLTVL
B2: A11 (antibody, IgG1, V domains shown)
VH: B1 VH with T28D, T31S, A33G, R67H, L71S, S84N, Y99T, S103R, G108D
VL: ASTQPSSVSANLGGTVEITCSGGGRYYYGWYQQKSPGSAPVTVIYANDKRPSDIPSRFSGSKSGSTGTLTITGVQAEDEAVYFCGSAETSSYVFGAGTTLTVL
B3: E9 (antibody, IgG1, V domains shown)
VH: AVTLDESGGGLQTPGGTLSLVCKGSGFTFSSYGMGWMRQAPGKGLEYVAAIRNDGSWTGYGSAVKGRATISRDNGQSTVRLQLNNLRAEDTATYYCAKTSGSSGGSVDAWGHGTEVIVS
VL: B2 VL
B4: G6 (antibody, IgG1, V domains shown)
VH: B3 VH with T17A, G24A, G35E, M37V, S62A, N74D, V79L, S100T, V107I
VL: B2 VL with G14E, E17K, R25N, V43L, D53N, S86T, E88D, S90G, S91K

Legend:
[1] = molecular target: T1, Ala mutant SEQ ID NO: 27 (human); test: ELISA, peptide on plate (10 ug/mL)
[2] = molecular target: T2, Ala mutant SEQ ID NO: 28 (human); test: ELISA, peptide on plate (10 ug/mL)
[3] = molecular target: T3, Ala mutant SEQ ID NO: 29 (human); test: ELISA, peptide on plate (10 ug/mL)
[4] = molecular target: T4, Ala mutant SEQ ID NO: 30 (human); test: ELISA, peptide on plate (10 ug/mL)
[5] = molecular target: T5, Ala mutant SEQ ID NO: 31 (human); test: ELISA, peptide on plate (10 ug/mL)
[6] = molecular target: T6, Ala mutant SEQ ID NO: 33 (human); test: ELISA, peptide on plate (10 ug/mL)
[7] = molecular target: T7, Ala mutant SEQ ID NO: 36 (human); test: ELISA, peptide on plate (10 ug/mL)
[8] = molecular target: T8, Ala mutant SEQ ID NO: 37 (human); test: ELISA, peptide on plate (10 ug/mL)
[9] = molecular target: T9, Ala mutant SEQ ID NO: 38 (human); test: ELISA, peptide on plate (10 ug/mL)
[10] = molecular target: T10, Ala mutant SEQ ID NO: 39 (human); test: ELISA, peptide on plate (10 ug/mL)
[11] = molecular target: T11, Ala mutant SEQ ID NO: 40 (human); test: ELISA, peptide on plate (10 ug/mL)
[12] = molecular target: T12, Ala mutant SEQ ID NO: 41 (human); test: ELISA, peptide on plate (10 ug/mL)
[13] = molecular target: T13, Ala mutant SEQ ID NO: 42 (human); test: ELISA, peptide on plate (10 ug/mL)
[14] = molecular target: T14, Ala mutant SEQ ID NO: 43 (human); test: ELISA, peptide on plate (10 ug/mL)
[15] = molecular target: T15, Ala mutant having 3-amino acid substitution, SEQ ID NO: 44 (human); test: ELISA, peptide on plate (10 ug/mL)
[16] = molecular target: T16, Ala mutant having 3-amino acid substitution, SEQ ID NO: 47 (human); test: ELISA, peptide on plate (10 ug/mL)
[17] = molecular target: T17, Ala mutant having 3-amino acid substitution, SEQ ID NO: 48 (human); test: ELISA, peptide on plate (10 ug/mL)
[18] = molecular target: T18, Ala mutant having 3-amino acid substitution, SEQ ID NO: 49 (human); test: ELISA, peptide on plate (10 ug/mL)
[19] = molecular target: T19, TA0096 (peptide antigen corresponding to positions 340 to 356 of PAD4) (human); test: ELISA, peptide on plate (10 ug/mL)
[20] = molecular target: full-length recombinant mouse PAD4 (mouse) (UniProt Q9Z183); test: ELISA, mouse PAD4 on plate, antibody 1 ug/mL
[21] = molecular target: full-length recombinant mouse PAD4 (mouse) (UniProt Q9Z183); test: ELISA, mouse PAD4 on plate, antibody 0.25 ug/mL
[22] = molecular target: full-length recombinant mouse PAD4 (mouse) (UniProt Q9Z183); test: ELISA, mouse PAD4 on plate, antibody 0.0625 ug/mL
[23] = molecular target: full-length recombinant mouse PAD4 (mouse) (UniProt Q9Z183); test: ELISA, mouse PAD4 on plate, antibody 0.015625 ug/mL
[24] = molecular target: full-length recombinant mouse PAD4 (mouse) (UniProt Q9Z183); test: ELISA, mouse PAD4 on plate, antibody 0.0002441 ug/mL
[25] = molecular target: full-length recombinant mouse PAD4 (mouse) (UniProt Q9Z183); test: ELISA, mouse PAD4 on plate, antibody 0.0009766 ug/mL
[26] = molecular target: full-length recombinant mouse PAD4 (mouse) (UniProt Q9Z183); test: ELISA, mouse PAD4 on plate, antibody 0.0039063 ug/mL
[27] = molecular target: full-length recombinant mouse PAD4 (mouse) (UniProt Q9Z183); test: ELISA, mouse PAD4 on plate, antibody 6.104E-05 ug/mL
[28] = molecular target: T20, Ala mutant SEQ ID NO: 32 (human); test: ELISA, peptide on plate (10 ug/mL)

Chain of full-length recombinant mouse PAD4 (mouse) (Q9Z183 whole entry): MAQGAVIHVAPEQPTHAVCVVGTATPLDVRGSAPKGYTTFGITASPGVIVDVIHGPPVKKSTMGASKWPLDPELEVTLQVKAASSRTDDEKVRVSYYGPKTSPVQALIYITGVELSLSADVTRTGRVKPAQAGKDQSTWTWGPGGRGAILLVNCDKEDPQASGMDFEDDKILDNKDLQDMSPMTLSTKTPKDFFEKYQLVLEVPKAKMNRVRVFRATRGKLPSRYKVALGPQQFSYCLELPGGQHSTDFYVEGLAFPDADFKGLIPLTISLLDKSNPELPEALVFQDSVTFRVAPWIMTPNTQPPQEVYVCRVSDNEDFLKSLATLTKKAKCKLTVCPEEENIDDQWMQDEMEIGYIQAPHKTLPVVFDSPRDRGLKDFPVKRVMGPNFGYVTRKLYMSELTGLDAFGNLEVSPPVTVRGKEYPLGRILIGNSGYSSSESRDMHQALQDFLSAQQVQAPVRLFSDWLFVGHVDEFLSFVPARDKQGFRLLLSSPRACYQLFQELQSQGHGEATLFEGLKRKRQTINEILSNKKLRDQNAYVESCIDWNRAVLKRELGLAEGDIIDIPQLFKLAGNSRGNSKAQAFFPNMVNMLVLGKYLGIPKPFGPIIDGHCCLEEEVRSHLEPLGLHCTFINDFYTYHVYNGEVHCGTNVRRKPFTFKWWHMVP

Binder | absorbance 490 nm/630 nm [1] [OD] | absorbance 490 nm/630 nm [2] [OD] | absorbance 490 nm/630 nm [3] [OD] | absorbance 490 nm/630 nm [4] [OD] | absorbance 490 nm/630 nm [5] [OD] | absorbance 490 nm/630 nm [6] [OD] | absorbance 490 nm/630 nm [7] [OD] | absorbance 490 nm/630 nm [8] [OD] | absorbance 490 nm/630 nm [9] [OD] | absorbance 490 nm/630 nm [10] [OD] | absorbance 490 nm/630 nm [11] [OD] | absorbance 490 nm/630 nm [12] [OD] | absorbance 490 nm/630 nm [13] [OD] | absorbance 490 nm/630 nm [14] [OD] | absorbance 490 nm/630 nm [15] [OD] | absorbance 490 nm/630 nm [16] [OD] | absorbance 490 nm/630 nm [17] [OD] | absorbance 490 nm/630 nm [18] [OD] | absorbance 490 nm/630 nm [19] [OD] | absorbance 490 nm/630 nm [20] [OD] | also measured
B1 | 1.9 | 1.95 | 1.9 | 1.95 | 0.462 | 1.87 | 1.87 | 1.86 | 1.99 | 1.81 | 1.86 | 1.83 | 1.85 | 1.87 | 1.9 | 1.67 | 1.87 | 1.86 | 1.82 | 2.3 | absorbance 490 nm/630 nm [21]: 2.31 OD; absorbance 490 nm/630 nm [22]: 2.29 OD; absorbance 490 nm/630 nm [23]: 2.26 OD; absorbance 490 nm/630 nm [24]: 0.224 OD; absorbance 490 nm/630 nm [25]: 0.55 OD; absorbance 490 nm/630 nm [26]: 1.41 OD; absorbance 490 nm/630 nm [27]: 0.103 OD
B2 | 1.95 | 2 | 2.05 | 2.03 | 1.67 | 2.09 | 1.91 | 1.8 | 1.89 | 1.89 | 1.85 | 1.85 | 1.88 | 1.92 | 1.98 | 1.25 | 1.87 | 1.89 | 1.81 | 2.24 | absorbance 490 nm/630 nm [28]: 0.628 OD; absorbance 490 nm/630 nm [21]: 2.25 OD; absorbance 490 nm/630 nm [22]: 2.24 OD; absorbance 490 nm/630 nm [23]: 2.02 OD; absorbance 490 nm/630 nm [24]: 0.152 OD; absorbance 490 nm/630 nm [25]: 0.386 OD; absorbance 490 nm/630 nm [26]: 1.07 OD; absorbance 490 nm/630 nm [27]: 0.045 OD
B3 | 1.89 | 2 | 1.92 | 1.91 | 1.38 | 1.93 | 1.9 | 1.2 | 1.91 | 1.77 | 1.82 | 1.8 | 1.83 | 1.88 | 1.9 | 1.34 | 1.81 | 1.85 | 1.79 | 2.23 | absorbance 490 nm/630 nm [28]: 0.177 OD; absorbance 490 nm/630 nm [21]: 2.23 OD; absorbance 490 nm/630 nm [22]: 2.19 OD; absorbance 490 nm/630 nm [23]: 1.86 OD; absorbance 490 nm/630 nm [24]: 0.122 OD; absorbance 490 nm/630 nm [25]: 0.416 OD; absorbance 490 nm/630 nm [26]: 0.956 OD; absorbance 490 nm/630 nm [27]: 0.051 OD
B4 | 1.91 | 1.99 | 1.95 | 1.92 | 1.77 | 1.98 | 1.85 | 1.85 | 1.92 | 1.83 | 1.86 | 1.87 | 1.87 | 1.87 | 1.92 | 1.73 | 1.85 | 1.88 | 1.87 | 2.27 | absorbance 490 nm/630 nm [21]: 2.27 OD; absorbance 490 nm/630 nm [22]: 2.16 OD; absorbance 490 nm/630 nm [23]: 1.35 OD; absorbance 490 nm/630 nm [24]: 0.071 OD; absorbance 490 nm/630 nm [25]: 0.2 OD; absorbance 490 nm/630 nm [26]: 0.55 OD; absorbance 490 nm/630 nm [27]: 0.044 OD
